Earlier results on 1 substance are cited in PMC8348223.

For orientation: Kd means the free concentration of one partner at which half of the binding sites on the other are occupied at equilibrium, for simple one-to-one binding.

Data set [1] deals with Bax (UniProt Q07812).
Data set [2] addresses Bcl-XL (UniProt Q07817).

tBid, sequence (P55957 61-195): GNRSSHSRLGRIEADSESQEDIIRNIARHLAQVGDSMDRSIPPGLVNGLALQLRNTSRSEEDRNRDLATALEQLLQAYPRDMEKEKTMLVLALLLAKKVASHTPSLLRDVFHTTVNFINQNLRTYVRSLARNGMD
Bcl-XL, sequence (Q07817 whole entry): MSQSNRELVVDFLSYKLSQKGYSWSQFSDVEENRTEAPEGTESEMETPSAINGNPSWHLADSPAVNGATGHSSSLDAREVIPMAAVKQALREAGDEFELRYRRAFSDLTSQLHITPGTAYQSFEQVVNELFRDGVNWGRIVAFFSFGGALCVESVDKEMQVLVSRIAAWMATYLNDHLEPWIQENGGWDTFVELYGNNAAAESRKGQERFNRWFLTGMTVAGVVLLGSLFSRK
Bax, sequence (Q07812 whole entry): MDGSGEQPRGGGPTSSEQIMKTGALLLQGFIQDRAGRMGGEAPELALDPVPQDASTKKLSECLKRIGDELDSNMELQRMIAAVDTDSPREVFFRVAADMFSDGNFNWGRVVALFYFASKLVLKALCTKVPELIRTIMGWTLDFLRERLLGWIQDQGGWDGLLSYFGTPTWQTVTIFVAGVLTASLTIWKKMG

As to tBid (from UniProt P55957), the figures for the dissociation constant (Kd) in data set [1] and in data set [2] were 20 nM and 1 nM, respectively.
